The results in this text go back to article doi:10.1101/2025.07.17.665365, “A protein-dependent riboswitch activates ribosomal frameshifting in cardioviruses”.

Data set [1] concerns the target T1, TMEV 2A (Theiler's murine encephalitis virus …, UniProt P08545 923-1055).
T1 sequence: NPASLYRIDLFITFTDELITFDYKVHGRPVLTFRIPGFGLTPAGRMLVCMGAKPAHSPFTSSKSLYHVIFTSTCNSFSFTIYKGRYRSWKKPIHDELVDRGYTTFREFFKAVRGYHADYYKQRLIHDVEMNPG
The data set is described as follows: EMSA; EMSA: 10 mM Tris-HCl pH 7.4, ~140 mM NaCl, 2 mM Mg acetate, 1 mM DTT, 5% glycerol, 50 nM RNA, 37 C; MST: 20 mM Tris-HCl pH 7.4, 400 mM NaCl, 1 mM MgCl2, 1 mM DTT, 0.05% Tween-20, 0.1 mg/ml tRNA, 22 C; smFRET: 10 mM Tris-HCl pH 7.4, 150 mM NaCl, 1 mM MgCl2, 1 mM DTT, 0.1 mg/ml BSA, ambient. Conditions: protein: recombinant, tags: His6-MBP, TEV-cleaved/removed, label: 5' Cy5 or AzDye647. In general terms: Mobility shift assays separate free from complexed probe on a gel.

For data set [2], the target named is T1, TMEV 2A. In words: EMSA; range given jointly for +1 and -1 bp; EMSA: 10 mM Tris-HCl pH 7.4, ~140 mM NaCl, 2 mM Mg acetate, 1 mM DTT, 5% glycerol, 50 nM RNA, 37 C; MST: 20 mM Tris-HCl pH 7.4, 400 mM NaCl, 1 mM MgCl2, 1 mM DTT, 0.05% Tween-20, 0.1 mg/ml tRNA, 22 C; smFRET: 10 mM Tris-HCl pH 7.4, 150 mM NaCl, 1 mM MgCl2, 1 mM DTT, 0.1 mg/ml BSA, ambient. Conditions: protein: recombinant, tags: His6-MBP, TEV-cleaved/removed, label: 5' Cy5 or AzDye647.

For data set [3], the target named is T1, TMEV 2A. In words: smFRET; 0.5 uM 2A; E 0.85 to 0.63; EMSA: 10 mM Tris-HCl pH 7.4, ~140 mM NaCl, 2 mM Mg acetate, 1 mM DTT, 5% glycerol, 50 nM RNA, 37 C; MST: 20 mM Tris-HCl pH 7.4, 400 mM NaCl, 1 mM MgCl2, 1 mM DTT, 0.05% Tween-20, 0.1 mg/ml tRNA, 22 C; smFRET: 10 mM Tris-HCl pH 7.4, 150 mM NaCl, 1 mM MgCl2, 1 mM DTT, 0.1 mg/ml BSA, ambient. As to conditions: protein: recombinant; tags: His6-MBP, TEV-cleaved/removed; label: 5' Cy5; 3' Cy3; stem-loop / pseudoknot.

Data set [4] concerns the target T1, TMEV 2A. The data set is described as follows: X-ray crystallography; 1.9 A; pseudoknot; EMSA: 10 mM Tris-HCl pH 7.4, ~140 mM NaCl, 2 mM Mg acetate, 1 mM DTT, 5% glycerol, 50 nM RNA, 37 C; MST: 20 mM Tris-HCl pH 7.4, 400 mM NaCl, 1 mM MgCl2, 1 mM DTT, 0.05% Tween-20, 0.1 mg/ml tRNA, 22 C; smFRET: 10 mM Tris-HCl pH 7.4, 150 mM NaCl, 1 mM MgCl2, 1 mM DTT, 0.1 mg/ml BSA, ambient. As to conditions: protein: recombinant; tags: His6-MBP, TEV-cleaved/removed; stem-loop alone.

For data set [5], the target named is T1, TMEV 2A. In words: smFRET; 0.5 uM 2A; E 0.58 to 0.83; EMSA: 10 mM Tris-HCl pH 7.4, ~140 mM NaCl, 2 mM Mg acetate, 1 mM DTT, 5% glycerol, 50 nM RNA, 37 C; MST: 20 mM Tris-HCl pH 7.4, 400 mM NaCl, 1 mM MgCl2, 1 mM DTT, 0.05% Tween-20, 0.1 mg/ml tRNA, 22 C; smFRET: 10 mM Tris-HCl pH 7.4, 150 mM NaCl, 1 mM MgCl2, 1 mM DTT, 0.1 mg/ml BSA, ambient. As to conditions: protein: recombinant; tags: His6-MBP, TEV-cleaved/removed; label: 5' Cy5; U31 Cy3; stem-loop / pseudoknot.

In data set [6] the target is T1, TMEV 2A. The data set is described as follows: SEC-SAXS; SASDWS5; EMSA: 10 mM Tris-HCl pH 7.4, ~140 mM NaCl, 2 mM Mg acetate, 1 mM DTT, 5% glycerol, 50 nM RNA, 37 C; MST: 20 mM Tris-HCl pH 7.4, 400 mM NaCl, 1 mM MgCl2, 1 mM DTT, 0.05% Tween-20, 0.1 mg/ml tRNA, 22 C; smFRET: 10 mM Tris-HCl pH 7.4, 150 mM NaCl, 1 mM MgCl2, 1 mM DTT, 0.1 mg/ml BSA, ambient. As to conditions: protein: recombinant; tags: His6-MBP, TEV-cleaved/removed; 7 bp stem-loop with unpaired 5' tail alone; pseudoknot in complex. For orientation: SEC sorts molecules by how far they enter the pores of the column.

As to CAAGGGCGGUGCUAACUAAAUCCCUAGCACCCC (structured_RNA) [dU19 stem 1], the binding result with TMEV 2A [1] (stem-loop / pseudoknot) is “no binding”.
Usually Kd stands for the equilibrium constant for the complex coming apart. As for CAAGGUGCGGUGCUACUAAAUCCCAGCACCCC (structured_RNA) [-1 bp stem 2], the Kd in the data set with TMEV 2A [2] (6 bp S2) is around 442 nM.
In the case of CAAUUUUCGGUGCUAACUAAAUAAAUAGCACCCC (structured_RNA) [UA stem 1], the binding result with TMEV 2A [1] (stem-loop / pseudoknot) is on record as “no binding”.
The same measure, in the same setting: the value for CAACCUCCGGUGCUAACUAAAUGGGUAGCACCCC (structured_RNA) [Stem 1 swap] was “no binding”.
In the case of CAAGGUGGGGUGCUUACUAAAUCCCAAGCACCCC (structured_RNA) [+1 bp stem 2], in the data set with TMEV 2A [2] (8 bp S2), the Kd was around 442 nM.
CAAGGUGCGGUGCUAACUAAAUCCCUAGCACCCC (structured_RNA) [TMEV end reporter RNA]: the binding result with TMEV 2A [3] is “binds”.
Turning to CAAGGUGCGGUGCUAACUAAAUCGCUAGCACCCC (structured_RNA) [C37G], in the data set with TMEV 2A [1] (stem-loop), the binding result is listed as “no binding”.
Turning to CAAGGUGCGGUGCUAACUAAAUCCCUAGCACCCC (structured_RNA) [TMEV minimal stimulatory element (oligo 1)], the binding result with TMEV 2A [4] is “binds”.
Consider CAAGGUGCGGUGCUAACUAAAUCCCUAGCACCCC (structured_RNA, U31 Cy3 (internal)) [TMEV internal reporter RNA], for which the binding result with TMEV 2A [5] was “binds”.
As to CAAGGUGCGGUGCUAACUAAAUGCCUAGCACCCC (structured_RNA) [C36G], the binding result in the data set with TMEV 2A [1] (stem-loop) is on record as “no binding”.
In the case of CAAAAUACGGUGCUAACUAAAUUUUUAGCACCCC (structured_RNA) [AU stem 1], in the data set with TMEV 2A [1] (stem-loop / pseudoknot), the binding result was “no binding”.
CAAGGUGCGGUGCACUAAAUCCCGCACCCC (structured_RNA) [-2 bp stem 2]: in the data set with TMEV 2A [1] (5 bp S2), the binding result is recorded as “no binding”.
For CCACAAGGUGCGGUGCUAACUAAAUCCCUAGCACCCC (structured_RNA) [TMEV stimulatory element, SAXS RNA], the binding result with TMEV 2A [6] is “binds”.
For the molecule CAAGGUGCCCACGAUACUAAAUCCCAUCGUGGCC (structured_RNA) [Stem 2 swap], the Kd with TMEV 2A [1] (stem-loop / pseudoknot) is around 313 nM.
